# Patent CN115028713A (JIANGSU DONGKANG BIOMEDICAL TECH CO LTD, dated 2022)
# B1: 单克隆抗体OP2 (anti-SARS-CoV-2 N protein monoclonal antibody OP2) (antibody, V domains shown)
# VH: DVQLVESGGGLVQPGGSRKLSCAASGSTFSNFGMHWVRQAPEKGLEWVAYISSASSIIYYADTVKGRFTISRDNPKNTLFLQMTSLRSEDTAMYYCARSAMDYWGQGTSVTVSS
# VL: DIVLTQSPASLAVSLGQRATISCKASQSVNYSGDSYMNWFQQKPGQPPKLLIYAASNLESGIPARFSGSGSGTDFTLNIHPVEEEDAATYYCQQSEEQPYTFGGGTKLEIK
# notes: also called 抗N蛋白的抗体
# Target: T1, SARS-COV2-N-B1617 (N protein of SARS-CoV-2 variant B1617) (SARS-CoV-2 variant B1617)
# T1 construct: also called 冠状病毒SARS-COV2变异株B1617
binder,measurement,value
B1,EC50,0.0166 µg/mL
